Reference: US8084228B2, “Nogo-B receptor antagonists” (Yale University, priority 2006, dated 2011)
“Also recorded” adds a separate entry of the source. d = 2'-deoxy (DNA)

T1: full-length NgBR (Homo sapiens, UniProt Q96E22)
T1 construct: expressed in transfected cells
T1 sequence (Q96E22 1-293): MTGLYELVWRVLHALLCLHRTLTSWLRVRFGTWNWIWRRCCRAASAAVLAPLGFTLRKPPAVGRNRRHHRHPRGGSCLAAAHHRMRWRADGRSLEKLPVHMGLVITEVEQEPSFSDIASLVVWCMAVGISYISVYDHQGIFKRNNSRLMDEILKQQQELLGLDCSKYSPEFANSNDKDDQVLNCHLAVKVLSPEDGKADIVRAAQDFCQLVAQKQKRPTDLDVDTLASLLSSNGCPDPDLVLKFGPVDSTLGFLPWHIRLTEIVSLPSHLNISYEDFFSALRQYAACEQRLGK

T2: Nogo receptor (Homo sapiens, UniProt Q9BZR6)
T2 construct: expressed in transfected cells; host or cells: COS-7
T2 sequence (Q9BZR6 27-447): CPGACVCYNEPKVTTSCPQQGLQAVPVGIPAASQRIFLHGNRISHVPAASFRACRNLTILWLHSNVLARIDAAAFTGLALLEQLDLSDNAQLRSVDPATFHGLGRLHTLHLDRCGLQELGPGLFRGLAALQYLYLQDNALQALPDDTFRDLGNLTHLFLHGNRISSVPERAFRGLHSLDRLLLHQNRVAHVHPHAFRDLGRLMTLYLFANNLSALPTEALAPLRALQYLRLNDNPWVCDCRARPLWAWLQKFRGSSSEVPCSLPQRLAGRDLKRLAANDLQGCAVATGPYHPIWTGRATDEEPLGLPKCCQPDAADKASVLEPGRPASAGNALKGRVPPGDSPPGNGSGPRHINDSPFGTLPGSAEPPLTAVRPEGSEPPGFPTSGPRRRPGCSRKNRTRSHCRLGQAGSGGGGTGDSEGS

T3: NgBR (Homo sapiens, UniProt Q96E22)
T3 sequence (Q96E22 1-293): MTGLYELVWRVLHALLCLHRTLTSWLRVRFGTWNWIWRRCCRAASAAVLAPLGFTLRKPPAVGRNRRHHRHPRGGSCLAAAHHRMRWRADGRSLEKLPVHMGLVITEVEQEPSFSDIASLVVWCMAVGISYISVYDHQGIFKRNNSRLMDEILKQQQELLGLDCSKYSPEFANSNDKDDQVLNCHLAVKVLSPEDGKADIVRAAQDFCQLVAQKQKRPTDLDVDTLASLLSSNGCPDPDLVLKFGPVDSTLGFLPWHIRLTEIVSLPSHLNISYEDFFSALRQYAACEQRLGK


Assays:
[1] = test system: NgBR mRNA; test: NgBR mRNA by quantitative PCR after siRNA transfection of HUVEC; format: cell-based, human; conditions: 72 hours after transfection, normalized to 18S
Method: (§1) NgBR siRNA oligonucleotides (SEQ ID NOS:2-5) with 3′ dTdT overhangs were synthesized by Qiagen. Control siRNA in experiments refers to a nonsilencing (NS) siRNA (NS forward: UUCUCCGAACGUGUCACGU, SEQ ID NO:7; NS reverse: ACGUGACACGUUCGGAGAA, SEQ ID NO:8) designed and synthesized by Qiagen. HUVEC and CHO stable cell lines were transfected with siRNA by using Oligofectamine. Quantification of NgBR mRNA and protein, ligand binding assay, and migration assay were performed at 72 hours after transfection.
Total RNA from cells was isolated by using the RNeasy kit (Qiagen). Reverse transcription was then performed by using 100 ng of RNA and the Superscript First-Strand Synthesis System kit (Invitrogen). Real-time PCR analysis was done with the iCycler iQ detection system using the iQ SYBR green Supermix kit (Bio-Rad). The NgBR mRNA level was normalized by housekeeping gene 18S. The following primers were used for NgBR: forward, 5′-[…]-3′ (SEQ ID NO:9) and reverse, 5′-[…]-3′ (SEQ ID NO:10). The following primers were used for 18S: forward, 5′-[…]-3′ (SEQ ID NO:11) and reverse, 5′-[…]-3′ (SEQ ID NO:12).

[2] = test system: NgBR protein; test: NgBR protein level after siRNA transfection of HUVEC; format: cell-based, human; conditions: 72 hours after transfection
Method: Single NgBR cDNA clones were isolated by sib selection and sequenced. A NgBR-HA was created in pIRESneo vector (BD, Palo Alto, Calif.), with the HA tag at the carboxy terminus. To access the physical interaction of NgBR with Am-Nogo-B, 50 μg of solubilized extracts of CHO cells expressing control vector (pIRESneo) or NgBR-HA was incubated with 25 μg of purified Am-Nogo-B or buffer for 2 hours at room temperature. The HA-tagged NgBR was immunoisolated with anti-HA immunobeads (Roche, Indianapolis, Ind.) and associated proteins analyzed by Western blotting. For the Western blots, expression of NgBR-HA was detected by using anti-HA (Roche) and NgBR (Imgenex), respectively, and beta-actin (Sigma) or Hsp90 (BD Biosciences-Pharmingen) was used to control for loading.
as §1

[3] = test system: HUVEC; test: AP-Am-Nogo-B binding to HUVEC after siRNA transfection; format: cell-based, human; conditions: 72 hours after siRNA transfection
Method: (§2) To detect AP-Am-Nogo-B binding, cultures were washed with Hanks' balanced salt solution (HBSS) containing 20 mM HEPES, pH 7.5, and 1 mg/mL BSA (HBH). The plates were then incubated with AP-Am-Nogo-B in DMEM containing 20 mM Hepes, pH 7.5, and 1 mg/mL BSA for 2 hours at 4° C. The bound AP-Am-Nogo-B was detected by using the Blue Substrate kit (Vector Laboratories). The blue staining was examined by using the ODYSSEY Infrared Imaging System (Li-Cor, Lincoln, Nebr.) and confirmed by microscopy. Alternatively, the bound AP-Am-Nogo-B was extracted with Triton X-100, and AP activity was colorimetrically quantified by using p-nitrophenyl phosphate (Sigma) as substrate after heat inactivation of endogenous AP. Non-specific binding was determined by measuring binding in the presence of a 100-fold molar excess of recombinant Am-Nogo-B lacking the AP fusion protein. Specific binding was determined by subtracting the non-specific binding from total binding. For determination of apparent Kd, the binding of AP-Am-Nogo-B was measured in triplicate as described above and the Kd value was quantified by using the Scatchard plot program of GraphPad PRISM (one-site binding, linear regression) using the ratio of bound ligand to free ligand as the y axis and bound ligand (pM) as the x axis.
as §1

[4] = test system: HUVEC; test: Am-Nogo-B-mediated chemotaxis of HUVEC after siRNA transfection; format: cell-based, human; conditions: 72 hours after siRNA transfection
Method: (§3) Cell migration was examined in modified Boyden chambers using 10 nM each of purified recombinant AP, AP fusion of Nogo-66 (AP-Nogo-66) or Am-Nogo-B. The transwell inserts (Costar transwell inserts; Corning) were coated with a solution of 0.1% gelatin (Sigma) in PBS at 4° C. overnight and then air-dried. VEGF at 50 ng/mL (1.1 nM) or recombinant Am-Nogo-B at various concentrations dissolved in medium 199 containing 0.1% BSA was added in the bottom chamber of the Boyden apparatus. HUVEC (200,000 cells) suspended in a 100 μL aliquot of medium 199 containing 0.1% BSA was added to the upper chamber. After 5 hours incubation, cells on both sides of the membrane were fixed and stained with a Diff-Quik staining kit (Baxter Healthcare, Miami, Fla.). The average number of cells from five randomly chosen high-power (×400) fields on the lower side of the membrane was counted.
as §1

[5] = biological target: T1, full-length NgBR; test: AP-Am-Nogo-B binding after S2 siRNA in cells expressing the full-length NgBR; format: cell-based
Method: as §2
NgBR siRNA oligonucleotides (SEQ ID NOS:2-5) with 3′ dTdT overhangs were synthesized by Qiagen. […]

[6] = test system: HUVEC; test: Tube formation of HUVEC in 3-D collagen cultures (total network length); format: cell-based, human; conditions: Am-Nogo-B 80 nM, HUVEC treated with siRNA
Method: HUVEC were resuspended (final concentration of 1×10^6) in a mixture containing rat tail type I collagen (1.5 mg/mL) 1/10 volume of 10×M199 and 1 M Hepes, neutralized with NaOH. Droplets (0.1 mL each) of the cell/collagen mixture were placed in cell culture dishes and allowed to polymerize for 15 minutes at 37° C. Growth medium containing either vehicle or agonist was then added to each well. HUVEC were allowed to form tube-like structures for 1-2 days. To evaluate tube formation in 3-D cultures, cells were photographed using the program OPENLAB (Improvision) and total-network length, defined as an elongation of cell into tube-like structures typically seen in 3-D cultures, was quantified in five fields for each replicate per experiment by using the measurement tools provided with OPENLAB.

[7] = test system: HUVEC; test: HUVEC migration in modified Boyden chambers; format: cell-based, human; conditions: 10 nM purified recombinant protein, 5 hours
Method: The migratory response of human umbilical vein endothelial cells (HUVEC) in response to a gradient of recombinant, purified alkaline phosphatase (AP) fusion protein expressing Am-Nogo-B or a recombinant purified Am-Nogo-B was examined. HUVEC were cultured in M199 with 20% FBS and endothelial cell growth supplement (ECGS).
as §3

[8] = test system: HUVEC; test: Binding of AP fusion proteins to the surface of HUVEC; design: species or system human; conditions: HUVEC (FIGS. 12, 15)
Method: as §2

[9] = biological target: T2, Nogo receptor; test: AP fusion protein binding to COS cells transfected with cDNA encoding the Nogo receptor; conditions: COS cells (FIG. 6)
Method: as §2
(§4) For expression cloning of Am-Nogo-B receptor, pools of 5,000 arrayed clones from a human heart cDNA library (OriGene Technologies, Rockville, Md.) were transfected into COS-7 cells, and AP-Am-Nogo-B binding was assessed by using AP versus AP-Am-Nogo-B binding and detection of the AP product by near-infrared cell imaging (Li-Cor, Lincoln, Nebr.) or AP activity assays.

[10] = test system: CHO cells; test: AP fusion protein binding to untransfected CHO cells
Method: as §2

[11] = biological target: T3, NgBR; test: AP fusion protein binding to CHO cells expressing NgBR; design: an isolated cDNA encoding NgBR is 2,636 base pairs encoding an open reading frame of 293 amino acids; expressed in transfected cells; conditions: for surface binding of AP fusion domains to NgBR-expressing cells: CHO cells expressing NgBR (FIGS. 11, 14); for binding to CHO cells stably expressing NgBR: increasing concentrations, 2 hours at 4° C.
Method: as §2
A recombinant AP-Am-Nogo-B fusion protein was used to screen a cDNA expression library from human heart (500,000 independent clones) transfected into COS or CHO cells using Lipofectamine 2000 (Invitrogen). COS-7 cells were cultured in high-glucose DMEM with 10% FBS. CHO cells were cultured in MEM-α with 5% FBS.

[12] = biological target: T3, NgBR; test: AP fusion protein binding to COS cells transfected with the isolated NgBR cDNA; design: an isolated cDNA encoding NgBR is 2,636 base pairs encoding an open reading frame of 293 amino acids; expressed in transfected cells; host or cells: COS-7 (A4); conditions: COS cells (FIG. 6)
Method: as §2, §4
Single NgBR cDNA clones were isolated by sib selection and sequenced. […] The HA-tagged NgBR was immunoisolated with anti-HA immunobeads (Roche, Indianapolis, Ind.) and associated proteins analyzed by Western blotting. For the Western blots, expression of NgBR-HA was detected by using anti-HA (Roche) and NgBR (Imgenex), respectively, and beta-actin (Sigma) or Hsp90 (BD Biosciences-Pharmingen) was used to control for loading.

surface binding of AP fusion domains to HUVEC [8] | binding to COS cells transfected with Nogo receptor cDNA [9] | surface binding of AP fusion domains to NgBR-expressing cells [11] | binding to COS cells transfected with the isolated NgBR cDNA [12] | Molecule | level of NgBR mRNA [1] | NgBR protein level [2] | binding of AP-Am-Nogo-B to HUVEC [3] | Am-Nogo-B-mediated chemotaxis of HUVEC [4] | binding of AP-Am-Nogo-B in cells expressing the full-length NgBR [5] | Am-Nogo-B-stimulated increase in tube formation after siRNA [6] | HUVEC migration [7] | binding to CHO cells [10] | binding to CHO cells stably expressing NgBR [11]
 |  |  |  | S1: siRNA targeting the coding region of NgBR mRNA; forward CCAGAAUUUGCAAAUAGUA, reverse UACUAUUUGCAAAUUCUGG (SEQ ID NO: 2, 3) (3' dTdT, sugars by position and backbone not given here) | downregulates | down-regulates | reduces |  |  |  |  |  | 
 |  |  |  | S2: siRNA targeting the 3' untranslated region of NgBR; forward GGAAAUACAUAGACCUACA, reverse UGUAGGUCUAUGUAUUUCC (SEQ ID NO: 4, 5) (3' dTdT, sugars by position and backbone not given here) | reduced | reduced | reduced | abolished | reduced | attenuated |  |  | 
did not bind | do not bind | did not bind | not | alkaline phosphatase (protein, UniProt P05187 23-506, looked up, purified recombinant alkaline phosphatase, control for AP fusion proteins) Alkaline phosphatase, …: IIPVEEENPDFWNREAAEALGAAKKLQPAQTAAKNLIIFLGDGMGVSTVTAARILKGQKKDKLGPEIPLAMDRFPYVALSKTYNVDKHVPDSGATATAYLCGVKGNFQTIGLSAAARFNQCNTTRGNEVISVMNRAKKAGKSVGVVTTTRVQHASPAGTYAHTVNRNWYSDADVPASARQEGCQDIATQLISNMDIDVILGGGRKYMFRMGTPDPEYPDDYSQGGTRLDGKNLVQEWLAKRQGARYVWNRTELMQASLDPSVTHLMGLFEPGDMKYEIHRDSTLDPSLMEMTEAALRLLSRNPRGFFLFVEGGRIDHGHHESRAYRALTETIMFDDAIERAGQLTSEEDTLSLVTADHSHVFSFGGYPLRGSSIFGLAPGKARDRKAYTVLLYGNGPGYVLKDGARPDVTESESGSPEYRQQSAVPLDEETHAGEDVAVFARGPQAHLVHGVQEQTFIAHVMAFAACLEPYTACDLAPPAGTTD |  |  |  |  |  |  | does not promote | minimal binding | not
did | do not bind | did |  | AP-Am-Nogo-B: purified alkaline phosphatase (AP) fusion protein with residues 1-200 at the amino terminus of Nogo-B (protein, left off: small tags and cut ends; large carriers, purified alkaline phosphatase (AP) fusion protein with residues 1-200 at the amino terminus of Nogo-B) MEDLDQSPLVSSSDSPPRPQPAFKYQFVREPEDEEEEEEEEEEDEDEDLEELEVLERKPAAGLSAAPVPTAPAAGAPLMDFGNDFVPPAPRGPLPAAPPVAPERQPSWDPSPVSSTVPAPSPLSAAAVSPSKLPEDDEPPARPPPPPPASVSPQAEPVWTPPAPAPAAPPSTPAAPKRRGSSGSVVVDLLYWRDIKKTGV |  |  |  |  |  |  |  | minimal binding | permits the binding; also recorded: permitted binding
